Results reported in paper PMC8809517, “Cofactor-independent RNA editing by a synthetic S-type PPR protein”.
Where a chain is given by its changes, count along the chain named.

Columns and labels:
Assay in all cases: high-throughput RNA pulldown from lysate on Ni-NTA beads; HRP: 50 mM Tris pH 8, 150 mM NaCl, 1 mM beta-mercaptoethanol, 50 ug/ml BSA, 3 ug/ml yeast RNA, 0.5% heparin; ITC and FP: Tris pH 8, 200 mM KCl, 5% glycerol; MST: 50 mM Tris pH 8, 200 mM NaCl, 1 mM DTT, BSA, heparin, 0.05% Tween 20
Conditions in all cases: tags: N-terminal His-eGFP
[1] = molecular target: T1, GFP-9S library array, motif 4 ND N98G;D124H (synthetic construct, N98G;D124H)
T1 chain: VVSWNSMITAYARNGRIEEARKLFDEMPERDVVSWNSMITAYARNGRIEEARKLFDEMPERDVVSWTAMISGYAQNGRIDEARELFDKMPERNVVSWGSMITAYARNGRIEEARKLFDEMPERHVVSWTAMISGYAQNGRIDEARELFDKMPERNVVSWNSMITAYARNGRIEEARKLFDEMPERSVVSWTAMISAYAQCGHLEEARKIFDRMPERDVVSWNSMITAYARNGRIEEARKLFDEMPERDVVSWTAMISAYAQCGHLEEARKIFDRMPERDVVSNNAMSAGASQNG

[2] = molecular target: T2, GFP-9S library array, motif 4 ND N98A;D124Y (synthetic construct, N98A;D124Y)
T2 chain: T1 chain with G98A, H124Y

[3] = molecular target: T3, GFP-9S library array, motif 4 ND N98C;D124K (synthetic construct, N98C;D124K)
T3 chain: T1 chain with G98C, H124K

[4] = molecular target: T4, GFP-9S library array, motif 4 ND N98H;D124V (synthetic construct, N98H;D124V)
T4 chain: T1 chain with G98H, H124V

[5] = molecular target: T5, GFP-9S library array, motif 4 ND N98T;D124A (synthetic construct, N98T;D124A)
T5 chain: T1 chain with G98T, H124A

For AUUACACGUGA (ssRNA) [Cy5-rpoA], the Kd ([1]; label: 5' Cy5) was 91.1 nM, the Kd ([2]; label: 5' Cy5) was 82.5 nM and the Kd ([3]; label: 5' Cy5) was 96.2 nM. It also gave a Kd ([4]; label: 5' Cy5) of 81.3 nM and a Kd ([5]; label: 5' Cy5) of 107 nM.

Work on AUUAUACGUGA (ssRNA) [IR-rpoA-U] yielded a Kd ([1]; label: 5' IRDye 800CW) of 136 nM, a Kd ([2]; label: 5' IRDye 800CW) of 175 nM and a Kd ([3]; label: 5' IRDye 800CW) of 139 nM. The Kd ([4]; label: 5' IRDye 800CW) was 57.3 nM and the Kd ([5]; label: 5' IRDye 800CW) was 173 nM.

Work on AUUAAACGUGA (ssRNA) [IR-rpoA-A] yielded a Kd ([1]; label: 5' IRDye 800CW) of 114 nM, a Kd ([2]; label: 5' IRDye 800CW) of 172 nM and a Kd ([3]; label: 5' IRDye 800CW) of 66.3 nM. It also gave a Kd ([4]; label: 5' IRDye 800CW) of 115 nM and a Kd ([5]; label: 5' IRDye 800CW) of 52.8 nM.

Work on AUUAGACGUGA (ssRNA) [Cy5-rpoA-G] yielded a Kd ([1]; label: 5' Cy5) of 108 nM, a Kd ([2]; label: 5' Cy5) of 68.5 nM and a Kd ([3]; label: 5' Cy5) of 91.1 nM. It also gave a Kd ([4]; label: 5' Cy5) of 95.2 nM and a Kd ([5]; label: 5' Cy5) of 70.1 nM.
